Source: patent US20050196797

Legend:
[1] = system: SMGBP1 (SMG Binding Protein 1)
[2] = system: protein having a molecular weight of 70 kDa (p70)

Sequence of SMGBP1 (SMG Binding Protein 1) (chain, as listed by the source): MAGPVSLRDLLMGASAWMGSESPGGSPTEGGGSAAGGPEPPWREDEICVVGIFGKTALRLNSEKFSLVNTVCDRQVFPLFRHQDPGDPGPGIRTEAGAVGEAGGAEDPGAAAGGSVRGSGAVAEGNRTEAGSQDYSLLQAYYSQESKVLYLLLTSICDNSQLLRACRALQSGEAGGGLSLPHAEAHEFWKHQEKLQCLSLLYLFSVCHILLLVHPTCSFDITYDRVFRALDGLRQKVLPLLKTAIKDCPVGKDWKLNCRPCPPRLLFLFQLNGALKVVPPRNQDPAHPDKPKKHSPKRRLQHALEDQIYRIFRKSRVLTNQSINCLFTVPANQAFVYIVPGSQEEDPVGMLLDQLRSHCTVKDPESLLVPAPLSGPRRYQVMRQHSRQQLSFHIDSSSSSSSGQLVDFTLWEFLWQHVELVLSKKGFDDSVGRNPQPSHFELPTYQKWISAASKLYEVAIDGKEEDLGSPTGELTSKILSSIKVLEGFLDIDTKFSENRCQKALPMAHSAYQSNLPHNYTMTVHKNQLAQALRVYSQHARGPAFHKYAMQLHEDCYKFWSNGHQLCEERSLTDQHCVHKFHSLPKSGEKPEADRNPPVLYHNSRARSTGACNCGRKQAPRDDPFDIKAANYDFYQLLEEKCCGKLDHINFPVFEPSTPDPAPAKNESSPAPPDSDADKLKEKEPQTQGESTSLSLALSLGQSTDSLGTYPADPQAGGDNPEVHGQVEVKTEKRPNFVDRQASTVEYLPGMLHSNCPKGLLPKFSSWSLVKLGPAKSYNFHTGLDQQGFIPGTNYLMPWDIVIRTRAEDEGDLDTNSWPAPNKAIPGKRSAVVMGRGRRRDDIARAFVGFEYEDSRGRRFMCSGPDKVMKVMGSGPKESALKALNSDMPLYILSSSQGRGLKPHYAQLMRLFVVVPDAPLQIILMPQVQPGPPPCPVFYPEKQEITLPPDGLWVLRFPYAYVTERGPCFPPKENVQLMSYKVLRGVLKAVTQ

human SMG-1 (hSMG-1)
phosphorylation in the hSMG-1 immunoprecipitate (32P autoradiography) [1]: a protein having a molecular weight of 130 kDa (p130) and a protein having a molecular weight of 70 kDa (p70), were detected as phosphorylated proteins. The patterns of phosphorylation thereof accorded exactly with those of autophosphorylation of hSMG-1. | phosphorylation in the hSMG-1 immunoprecipitate (32P autoradiography) [2]: a protein having a molecular weight of 130 kDa (p130) and a protein having a molecular weight of 70 kDa (p70), were detected as phosphorylated proteins. The patterns of phosphorylation thereof accorded exactly with those of autophosphorylation of hSMG-1.
